Experimental data taken from PMC3466378 (Journal of immunology (Baltimore, Md. : 1950), 2012).
Ends that are not written are not given here.

Assays:
HLA-DR1 = HLA-DR1 (Homo sapiens, UniProt P01903+P01911, A100R/D57E/F55L/F60I/F76Y/I96L/L162R/M171V/P40L/Q125E/R42F/V115G/Y59C); assay: biochemical; type: binding
[1] = target: Soluble recombinant HLA-DR1 (HLA DRB1*0101) (human); assay: ELISA
[2] = target: Soluble recombinant HLA-DR1 (HLA DRB1*0101) (human); assay: fluorescence polarisation

Work on GRYLVLKAVKVSD [F17R(19–31)] yielded an IC50 (HLA-DR1) of 37 nM.
In the case of `CC[C@H](C)[C@H](NC(=O)[C@H](CCCNC(=N)N)NC(=O)[C@H](CC(=O)O)NC(=O)[C@@H](NC(=O)[C@H](CCCCN)NC(=O)[C@@H](NC(=O)[C@H](CO)NC(=O)[C@H](CCC(=O)O)NC(=O)[C@@H](NC(=O)[C@H](Cc1ccc(O)cc1)NC(=O)[C@H](CCSC)NC(=O)[C@H](Cc1ccccc1)NC(=O)[C@H](CO)NC(=O)[C@H](Cc1ccccc1)NC(=O)[C@@H](N)CCCCN)[C@@H](C)CC)[C@@H](C)CC)C(C)C)C(=O)O` [A20R (214–228)], the IC50 (HLA-DR1) is reported as 192 nM.
For F1L(202–214) (peptide), the t1/2DM [1] was 117 h and the t1/2in [1] was 413 h.
A48Rs (41–55) (peptide) was tested, and the IC50 [2] was 44 nM, the t1/2DM [1] was 115 h and the t1/2in [1] was 136 h.
I4L (71–85) (peptide) showed a t1/2in [1] of 278 h.
`CC[C@H](C)[C@H](NC(=O)[C@H](Cc1ccccc1)NC(=O)[C@H](CC(C)C)NC(=O)[C@H](CC(C)C)NC(=O)[C@H](CO)NC(=O)[C@@H](NC(=O)[C@H](C)N)C(C)C)C(=O)N[C@@H](CCC(N)=O)C(=O)NCC(=O)N[C@@H](Cc1ccc(O)cc1)C(=O)N[C@@H](CO)C(=O)N[C@H](C(=O)N[C@@H](Cc1ccc(O)cc1)C(=O)N[C@@H](CCC(=O)O)C(=O)N[C@@H](CC(N)=O)C(=O)O)[C@@H](C)CC` [A28Ls (15–29)] showed an IC50 (HLA-DR1) of 212 nM.
Work on L1R (191–205) (peptide) yielded an IC50 [2] of 7360 nM.
With A28Ls (15–29) (peptide) the IC50 [2] was 212 nM and the t1/2in [1] was 213 h.
D6R (156–170) (peptide) was tested, and the IC50 [2] was 4 nM, the t1/2DM [1] was 219 h and the t1/2in [1] was 997 h.
`CC[C@H](C)[C@H](NC(=O)[C@@H]1CCCN1C(=O)[C@H](CO)NC(=O)CNC(=O)[C@H](CC(=O)O)NC(=O)[C@H](CC(C)C)NC(=O)[C@@H](NC(=O)[C@H](CCCCN)NC(=O)[C@H](Cc1ccccc1)NC(=O)CNC(=O)[C@H](CC(C)C)NC(=O)[C@@H](N)CO)C(C)C)C(=O)N[C@@H](CO)C(=O)N[C@@H](CC(C)C)C(=O)N[C@@H](CCCNC(=N)N)C(=O)O` [I8R (243–257)] showed an IC50 (HLA-DR1) of 17 nM.
For TTQSMNIMESIPANT [A48Rs (41–55)], the IC50 (HLA-DR1) was 44 nM.
I1L (8–22) (peptide) was tested, and the IC50 [2] was 15 nM and the t1/2in [1] was 155 h.
HPDYAILAARIAVSN [I4L (71–85)] was tested, and the IC50 (HLA-DR1) was 62 nM.
`CC[C@H](C)[C@H](NC(=O)[C@H](CO)NC(=O)[C@H](CC(N)=O)NC(=O)[C@H](Cc1ccccc1)NC(=O)[C@@H](NC(=O)[C@@H](N)CC(C)C)C(C)C)C(=O)N[C@@H](CO)C(=O)N[C@@H](C)C(=O)N[C@@H](CCCNC(=N)N)C(=O)N[C@@H](C)C(=O)N[C@@H](CC(C)C)C(=O)N[C@@H](CCCCN)C(=O)N[C@@H](C)C(=O)N[C@@H](Cc1ccc(O)cc1)C(=O)N[C@@H](Cc1ccccc1)C(=O)O` [I1L (8–22)] showed an IC50 (HLA-DR1) of 15 nM.
Compound D5R (315–329) (peptide) has a t1/2in [1] of 276 h.
With `CC[C@H](C)[C@H](NC(=O)[C@H](C)NC(=O)[C@H](CC(C)C)NC(=O)[C@H](CO)NC(=O)[C@H](CC(N)=O)NC(=O)[C@H](CC(C)C)NC(=O)[C@H](Cc1ccccc1)NC(=O)[C@H](CCCNC(=N)N)NC(=O)[C@H](CCSC)NC(=O)[C@H](CC(=O)O)NC(=O)[C@@H](N)Cc1ccccc1)C(=O)N[C@@H](Cc1c[nH]cn1)C(=O)N[C@@H](CCC(=O)O)C(=O)O` [I7L (193–205)] the IC50 (HLA-DR1) was 150 nM.
`CC[C@H](C)[C@H](NC(=O)CNC(=O)[C@H](CO)NC(=O)[C@H](CCC(N)=O)NC(=O)[C@H](CC(N)=O)NC(=O)[C@@H](NC(=O)[C@H](Cc1ccccc1)NC(=O)[C@@H]1CCCN1C(=O)[C@@H](N)CCC(=O)O)C(C)C)C(=O)N[C@@H](CCC(=O)O)C(=O)N[C@H](C(=O)N[C@@H](CC(C)C)C(=O)N[C@@H](CC(C)C)C(=O)O)[C@@H](C)CC` [D11L (386–398)] showed an IC50 (HLA-DR1) of 106 nM.
